Measured values: publication doi:10.1101/2024.07.16.603692

Biological target: CBP-UPF1-CH-HD (aa 115-914) (human) (UniProt Q92900)
Assay: MST

With “UPF2(770-1204) (from UniProt Q9HAU5 770-1204) (domain or fragment)” the Kd was 10 nM.
